# Assay results from the supplement of paper PMC12042874.
# ± gives the uncertainty stated by the source.
# Assay: amyloid nucleation score (Sup35N fusion, yeast selection) (log enrichment); library NNK2; higher = more nucleation; inactive = no reads after selection
# Outline: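 Libraries of peptides of 20 random codons fused to Sup35N were expressed in psi-negative yeast and induced 24 hours with 100 μM copper sulfate. Selection was 7 days at 30°C on medium lacking adenine and uracil, and plasmid inserts were Illumina-sequenced before and after selection. Nucleation score is the DiMSum log enrichment of output over input reads, centred on the mode score of non-aggregating sequences, and sequences with under 100 input reads were left out.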
row,Substance,amyloid nucleation score
1,IDILWVRVNAFLSVVEIRSN,0.949 ± 0.15
2,CVDSKWLYFGRWSTQVIDI,-0.196 ± 1
3,VSWLDYHVSPSRCRGTLNPC,0.463 ± 0.38
4,IIKLRFFWYYNLLNQYLGFR,inactive
5,GPRSPAA,0.613 ± 0.34
6,HGQISLRMWQVRR,5.759 ± 0.052
7,FVTFWDYWSSRGDPMMSYRV,0.13 ± 0.49
8,TFGCEPVGPVA,0.409 ± 0.8
9,ILNCVMYLICKYVFII,2.16 ± 0.14
10,FGICLVMRFLWYESSTPWED,-0.446 ± 1
11,ENERNML,-0.11 ± 0.29
12,PHRSPMGANHPERCLVPMLF,-0.134 ± 0.55
13,RVMRVISRPEELAWVA,0.602 ± 0.29
14,YSSSVMPRRSDRVRT,0.139 ± 0.63
15,LCSSKETDMPFLVLQSLKSN,-0.791 ± 0.78
16,YDLGLKFNSHLATWGGFYHW,-0.746 ± 0.76
17,YRNRVSLRKYRDARYQLCCT,0.247 ± 0.25
18,CSCGYMKANR,-0.721 ± 1
19,SLDETSPLVWEWEICSDLYN,0.68 ± 0.56
20,FVGTLMDPVSLMKLRW,0.787 ± 0.31
21,FLLRVSSSTKTRRSSGVDL,3.69 ± 0.095
22,FREGSSIGFVLPTENVLMT,0.256 ± 1
23,VVIHLLPSES,inactive
24,FHAKRTINMNGATVQYGLYA,-0.354 ± 0.76
25,MWESQGHSLAV,inactive

row,Substance,amyloid nucleation score
1,LYYAVQFLKIRTLLPECSLQ,0.16 ± 0.43
2,ILYGGSPSLYVYAYTKN,4.35 ± 0.11
3,FFKRSSFKMGSRITETRYRR,-0.728 ± 0.56
4,GKPNGGYSTAK,0.777 ± 0.4
5,TISIFGM,-0.325 ± 0.33
6,RFYTVSRSRLSGMSMYLCRV,-0.294 ± 0.26
7,NEENVEVFCYRVSGSYRCYQ,4.36 ± 0.094
8,CIGLHC,-0.196 ± 1
9,LPLLCFTDV,inactive
10,INSVFNGIGRVYRHW,-0.554 ± 1
11,ILRYSFCRMLFAPRVTLIRF,1.74 ± 0.25
12,ALPPPVKELPWISRFRQWGR,1.22 ± 0.47
13,QHTKGHSPEWD,1.47 ± 0.28
14,TNSTPPVKLYWIMKLLDRFR,inactive
15,VNYRNLMKESLCILRQTYTL,0.031 ± 0.65
16,SDSGQVVNSLGSKEGIRFFD,-1.17 ± 0.38
17,LVGMSATYPTHNWFKVRTYF,-0.104 ± 0.76
18,RNGLTFRRTYSAYC,1.01 ± 0.25
19,RSTNTRIIKLTKCAGPNRDE,1.14 ± 0.17
20,NKLFPAWLPMCVFWFYGFLA,-0.138 ± 0.53
21,DAFWLWSFIWACVLCFTKHR,-0.549 ± 0.45
22,DKSNGVTMVESITSGG,-0.303 ± 0.56
23,LTIVLQLGLL,8.52 ± 0.066
24,DKSCLISVMLICLL,5.21 ± 0.059
25,KRTWRFFYRL,inactive

row,Substance,amyloid nucleation score
1,FLTGDFSAHMNLLIWIFEMS,5.669 ± 0.05
2,TTSKISSSKSLEARHTSHLP,0.985 ± 0.27
3,NYLMWVITSTYWRHGRESWA,3.03 ± 0.057
4,FSYMYPRGLLVINMSGVQVN,1.22 ± 0.17
5,PKNMWGSNNLRGMPVSDVKS,0.032 ± 0.34
6,RLCRSAPG,1.3 ± 0.44
7,MRQSNDWLFFLTNGTKCGEL,-0.162 ± 0.46
8,KYRKSGSERTRARTGVCTVW,0.585 ± 0.66
9,CIISFGLMHEYCYVAM,1.9 ± 0.13
10,PFSWH,1.38 ± 0.14
11,FYQGLATILSSSLVPIHRHQ,inactive
12,WNEIE,inactive
13,DLHWA,0.595 ± 0.28
14,CSINLRAYPVLSRGATVACK,0.755 ± 0.55
15,VIFVVNIFHLYWLRVC,0.748 ± 0.58
16,AMYLPWARCSISPTNLIFNL,-1.1 ± 0.42
17,NNFSVSFLGVDVF,-0.199 ± 0.74
18,LTWSVVRKYSIALRCGGR,-0.002 ± 0.63
19,STKVR,1.3 ± 0.32
20,KISSLLGWLWRITIRRLGRA,0.617 ± 0.65
21,NRIYVQNRPWSIPENVELTG,-0.821 ± 0.78
22,VLRGPS,0.302 ± 0.56
23,TFMTAMVVWSVSLGYPLLRR,1.24 ± 0.23
24,INSPSYDNILMSTSSANMKR,inactive
25,KILNCTGSQVKS,-0.032 ± 0.25

row,Substance,amyloid nucleation score
1,VRSVLVRKGTWARCTRMVAM,1.05 ± 0.56
2,IATHHTDESAG,-0.083 ± 0.79
3,PVRLPSMWNVDRAFWPDYCQ,inactive
4,TTVDSNIRAYIFKVARYHYK,-0.488 ± 1
5,SWLYIQFFNLVLKTIVGLGV,0.026 ± 1.1
6,QDSFRGLGYFWGPQHETVVM,-1.23 ± 0.48
7,VSASFEFRFSSGKWACLWRG,4.31 ± 0.057
8,AALPFHEVPTGLMITRAFWD,3.72 ± 0.13
9,FLVENCC,-0.39 ± 0.64
10,SLDQFSLSPKAVQRVACVAQ,0.251 ± 0.54
11,AYYFVLNVSTNLGNLGRTIL,4.35 ± 0.11
12,FFYSGRGYTDKWHMGSLPRC,-0.964 ± 0.76
13,MFKSCQEGIKHWNNPT,3.59 ± 0.051
14,TWMSYFVHVSVGFLVYYLYI,-0.919 ± 1
15,TMGGSGDGRY,inactive
16,ANNICCGASEKYGRWASTID,-0.76 ± 1
17,TNSRRCSYSLTPPSGTNRCQ,-0.053 ± 0.54
18,LLTCEASRTPARSQLLASEG,0.851 ± 0.4
19,GNCPLMPMKFRNRMSHSAFS,0.517 ± 0.4
20,FYRGM,-0.547 ± 0.5
21,SCSRWWFWRNATLEVLSKVR,0.697 ± 0.81
22,MRTRWAVITKMFRRGWEVKV,0.753 ± 0.67
23,ASVCHTLVGILYDDEGARTR,0.85 ± 0.4
24,ILRVSGDAERSILFCPCLAI,-0.255 ± 0.25
25,RELLSLSYSLVMCVVLRV,0.734 ± 0.18

row,Substance,amyloid nucleation score
1,SEYVCSCYFSGLLNKLRLVE,0.356 ± 0.43
2,GLRSLVHEARCRYKTSTSVK,-0.939 ± 0.55
3,FYMLYYQIAVSCHLCFDILV,inactive
4,DSKWIM,-0.326 ± 0.46
5,VDHSMVCWVRCMGC,0.19 ± 1.1
6,IRRGTYNFLMFQKDSFEYVS,0.536 ± 0.62
7,RLLALLGSCYWAGLDVSARI,3.36 ± 0.097
8,NDNFLCSAIVFCMAVFRFGW,inactive
9,TEVGCYFYTWRICIYNDTRA,2.28 ± 0.11
10,SGLEEYLSHLMLQVRFQESR,0.432 ± 0.57
11,YTVGRGSR,0.794 ± 0.6
12,YYMVSP,-0.093 ± 0.33
13,SLFITASYYNFRG,3.62 ± 0.049
14,CCQFLVTWDVAYTSMFGSTL,3.56 ± 0.056
15,GWFFDFFITCPVSHSTFSKL,2.19 ± 0.14
16,RNIVDISSNVRCWLGRPAIS,3.27 ± 0.066
17,SEFLRKVSFFLFYLFSSGHL,-0.73 ± 0.61
18,TLNYSVEQPYAVIILGCKLA,3.56 ± 0.083
19,KNGATLSCYILYSCGLMASV,-2.34 ± 0.62
20,SSSIRVRTDEHMEVAGKRLS,0.217 ± 0.27
21,TLDGMQMSWFRNGV,3.93 ± 0.13
22,VAKAAHFSLVIMYLFK,0.01 ± 0.43
23,MCVLECFDAGSGYLR,1.06 ± 0.59
24,ARQDYWIRWLTALSMMYGSG,-0.071 ± 0.31
25,YHWIIIRVA,-0.601 ± 0.79

row,Substance,amyloid nucleation score
1,TITPKSSICNPLRDNSYSVV,0.136 ± 0.65
2,TYSFVSLTYDSVTVFALTRC,-0.326 ± 0.49
3,HSMQSVPKWKL,1.86 ± 0.25
4,FYKTLCKLGWAPWS,-0.744 ± 0.32
5,YMTEIANKRSPRACWIGERM,-0.156 ± 0.79
6,NDRRRRGCRWMVAALVSSVL,0.966 ± 0.53
7,EMVRTTMSWPYMFS,-0.47 ± 1.1
8,KWIMWLDRYPDTSPCILYAQ,4.42 ± 0.055
9,RFMWLTLSSFQGLAEGLCTF,-0.631 ± 0.76
10,MDGVHFVRYQM,0.181 ± 0.45
11,QLFTWILVAPKLPCWF,6.36 ± 0.086
12,IDHYLVLASLDW,-0.41 ± 0.47
13,ARTKVIY,-1.34 ± 0.75
14,ILWNYIYDKSFGITPDGFV,-0.398 ± 1
15,RMFDYDSGGNNRICYDYYAN,-1.69 ± 0.61
16,TISYKELLFANRFRELQPAD,0.299 ± 0.49
17,TRNNLSVERQKVRAMSCEKC,-0.038 ± 1.1
18,IWYESWEQHGKDVQVPMVTD,0.623 ± 0.22
19,LSVTGDTWRMVSRYSHECKD,0.859 ± 0.52
20,LIKVVVMS,1.04 ± 0.42
21,RATISLVDMEFSLRDPQ,inactive
22,YLLGRMKWLNTVRWERRDEF,3.51 ± 0.083
23,SRRFFQKIRLWGMTDQQKGM,3.08 ± 0.072
24,RSLHFFTSMHMCGRCLNRLF,0.048 ± 0.45
25,HTFITVPASGRAATLCTSED,1.14 ± 0.12

row,Substance,amyloid nucleation score
1,RALEIALMLSTTCKSGFRRE,5.56 ± 0.06
2,RVSHEHVYLSNFVTPWLCYY,5.913 ± 0.049
3,FNINSPTALSYFMVLEVPLV,2.42 ± 0.12
4,IGVLISVGNLSYSTYSSRFI,5.87 ± 0.062
5,RHCDLQSRLPSTWYLVRYPC,0.885 ± 0.74
6,GISLGDNIRFYLDCTAAPGA,-0.648 ± 0.42
7,RIMSCNQITNIICVL,4.89 ± 0.078
8,LAHETLCLDTYRDPW,-1.54 ± 1
9,LMMKEPDPSVC,-0.101 ± 0.42
10,TIYWECYMDILARSGAMWVW,-1.34 ± 0.49
11,VVNSQQFVGLCSRRSA,0.576 ± 0.42
12,FNHLRSARILPGFFSFSRFK,-1.35 ± 0.54
13,YRKAGSSQTGNFLLLLLDGG,0.067 ± 0.63
14,LKQTGQLRVMSN,0.039 ± 0.79
15,RVADVCTQVMRGL,1.9 ± 0.33
16,AWHIPLTCGLHVIFLGR,inactive
17,DRSFVETREVACVVMYTSVF,-0.395 ± 0.61
18,DTFINWIWRGYGKWMCSGRR,-0.135 ± 0.39
19,HVVMFS,-0.38 ± 0.76
20,LFINNDTNDNYH,-1.18 ± 0.47
21,IFDQVNSRYRYAVGYGKW,inactive
